In patent US20050282743A1, “Molecular interactions in cells” (Arbor Vita Corporation, priority 2001, published 2005):
Like-named read-outs stand apart in the source and are kept apart here.

Columns and labels:
Assay in all cases: G' assay
[1] = target: T1, GST-PSD95 PDZ domain 3 (Homo sapiens)
T1 chain: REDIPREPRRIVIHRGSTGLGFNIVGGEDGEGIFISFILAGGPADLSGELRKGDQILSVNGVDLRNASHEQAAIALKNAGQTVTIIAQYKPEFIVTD

[2] = target: T2, GST-Connector Enhancer PDZ domain 1 (Homo sapiens (Human)), Q969H4
T2 chain: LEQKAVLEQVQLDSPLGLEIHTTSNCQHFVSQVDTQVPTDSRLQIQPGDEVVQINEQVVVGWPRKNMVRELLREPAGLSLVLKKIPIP

[3] = target: T3, GST-PTN-4 PDZ domain 1 (Homo sapiens (Human)), P29074
T3 chain: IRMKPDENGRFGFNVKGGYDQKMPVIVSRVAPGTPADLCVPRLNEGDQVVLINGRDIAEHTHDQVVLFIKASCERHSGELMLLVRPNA

[4] = target: T4, GST-Shank 3 PDZ domain 1 (human (hypothetical, computer cloned)), Q9BYB0
T4 chain: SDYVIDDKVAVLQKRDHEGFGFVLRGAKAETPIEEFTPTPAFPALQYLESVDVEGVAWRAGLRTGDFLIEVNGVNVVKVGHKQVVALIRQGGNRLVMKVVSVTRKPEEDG

[5] = target: GST-PIST PDZ domain 1 (Mus musculus (Mouse)), Q8BH60
[6] = target: T5, GST-GRIP 1 PDZ domain 3 (Homo sapiens (Human)), Q9Y3R0
T5 chain: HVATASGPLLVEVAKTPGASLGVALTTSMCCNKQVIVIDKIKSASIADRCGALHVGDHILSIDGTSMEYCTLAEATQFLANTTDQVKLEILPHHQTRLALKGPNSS

[7] = target: GST-Unnamed Protein PDZ domain 2 [GST: P08515]
[8] = target: GST-KIAA0316 PDZ domain 1 (Homo sapiens (Human)), Q14CM0
[9] = target: T6, GST-NeDLG PDZ domain 1 (Mus musculus (Mouse)), P70175
T6 chain: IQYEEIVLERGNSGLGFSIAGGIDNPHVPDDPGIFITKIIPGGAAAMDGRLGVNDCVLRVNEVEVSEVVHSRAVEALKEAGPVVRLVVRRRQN

[10] = target: GST-KIAA1222 PDZ domain 1 (Rattus norvegicus (Rat)), O35867
[11] = target: T7, GST-MUPP1 PDZ domain 1 (Homo sapiens (Human)), O75970
T7 chain: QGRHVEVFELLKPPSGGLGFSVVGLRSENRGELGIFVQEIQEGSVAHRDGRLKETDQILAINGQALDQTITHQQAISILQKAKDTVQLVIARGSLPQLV

[12] = target: T8, GST-Syntrophin 1 alpha PDZ domain 1 (Homo sapiens (Human)), Q13424
T8 chain: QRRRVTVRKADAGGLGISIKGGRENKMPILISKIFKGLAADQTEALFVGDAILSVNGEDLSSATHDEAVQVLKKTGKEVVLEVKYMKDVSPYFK

[13] = target: T9, GST-KIAA0380 PDZ domain 1 (Homo sapiens (Human)), O15085
T9 chain: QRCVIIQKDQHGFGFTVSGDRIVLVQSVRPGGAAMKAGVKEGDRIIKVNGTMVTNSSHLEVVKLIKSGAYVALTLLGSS

[14] = target: T10, GST-AIPC PDZ domain 4 (Homo sapiens (Human)), O15018
T10 chain: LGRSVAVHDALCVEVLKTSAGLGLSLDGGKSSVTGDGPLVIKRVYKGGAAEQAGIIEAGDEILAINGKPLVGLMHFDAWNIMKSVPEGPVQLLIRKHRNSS

[15] = target: T11, GST-SITAC-18 PDZ domain 2 (Homo sapiens (Human)), Q9H190
T11 chain: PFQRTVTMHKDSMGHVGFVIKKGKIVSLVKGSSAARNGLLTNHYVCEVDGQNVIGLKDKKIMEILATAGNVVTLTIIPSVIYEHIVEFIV

[16] = target: T12, GST-SITAC-18 PDZ domain 1 (Homo sapiens (Human)), Q9H190
T12 chain: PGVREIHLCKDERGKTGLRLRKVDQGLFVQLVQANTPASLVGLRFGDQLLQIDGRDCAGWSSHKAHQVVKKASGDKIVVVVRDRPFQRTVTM

[17] = target: T13, GST-MUPP1 PDZ domain 6 (Homo sapiens (Human)), O75970
T13 chain: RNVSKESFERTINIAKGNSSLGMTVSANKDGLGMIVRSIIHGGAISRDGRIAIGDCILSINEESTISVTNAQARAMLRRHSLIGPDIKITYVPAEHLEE

[18] = target: T14, GST-ZO-3 PDZ domain 2 (Homo sapiens (Human)), O95049
T14 chain: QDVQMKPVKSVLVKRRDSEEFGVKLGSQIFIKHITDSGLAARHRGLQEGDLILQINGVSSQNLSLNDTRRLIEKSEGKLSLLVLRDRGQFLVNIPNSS

[19] = target: T15, GST-KIAA1284 PDZ domain 1 (Homo sapiens (Human)), Q9ULD6
T15 chain: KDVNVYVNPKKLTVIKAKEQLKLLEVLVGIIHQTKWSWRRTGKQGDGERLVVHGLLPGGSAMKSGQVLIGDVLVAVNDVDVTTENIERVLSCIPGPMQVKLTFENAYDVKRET

[20] = target: T16, GST-Atrophin-1 Interacting Protein PDZ domain 6 (Rattus norvegicus (Rat)), O88382
T16 chain: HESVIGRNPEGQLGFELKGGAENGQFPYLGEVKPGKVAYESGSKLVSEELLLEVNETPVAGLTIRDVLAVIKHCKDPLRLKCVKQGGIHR

[21] = target: T17, GST-DLG5 PDZ domain 2 (Homo sapiens (Human)), Q8TDM6
T17 chain: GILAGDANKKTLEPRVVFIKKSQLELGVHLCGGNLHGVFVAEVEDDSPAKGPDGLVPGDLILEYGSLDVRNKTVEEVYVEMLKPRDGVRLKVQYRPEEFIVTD

[22] = remark: other sources report otherwise
Also: key of the grades not given here.

Sequence of GST-KIAA1222 PDZ domain 1 (Rattus norvegicus (Rat)), O35867 (O35867 499-598, tags or fused parts left off): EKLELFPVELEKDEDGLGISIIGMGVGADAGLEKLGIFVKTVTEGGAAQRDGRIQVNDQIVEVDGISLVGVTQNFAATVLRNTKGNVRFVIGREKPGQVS
Sequence of GST-Unnamed Protein PDZ domain 2 [GST: P08515] (P08515 whole entry, the tested form may be a part): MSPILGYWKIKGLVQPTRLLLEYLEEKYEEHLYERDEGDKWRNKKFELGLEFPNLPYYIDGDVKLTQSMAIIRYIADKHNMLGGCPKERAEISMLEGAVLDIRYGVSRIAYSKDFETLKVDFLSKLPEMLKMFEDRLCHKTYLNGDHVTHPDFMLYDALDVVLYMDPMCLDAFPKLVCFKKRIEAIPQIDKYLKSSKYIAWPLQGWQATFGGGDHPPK
Sequence of GST-KIAA0316 PDZ domain 1 (Homo sapiens (Human)), Q14CM0 (Q14CM0 72-159): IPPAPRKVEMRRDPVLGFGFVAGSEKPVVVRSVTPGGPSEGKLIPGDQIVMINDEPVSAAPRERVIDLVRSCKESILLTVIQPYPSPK

B1: TAX (peptide)
peptide: QISPGGLEPPSEKHFRETEV
modifications: not checked
- Classification [1]: 1 A450 class
- Classification [2, 22]: 1 A450 class
- Classification [3]: 2 A450 class

B2: LPAP (peptide)
peptide: AWDDSARAAGGQGLHVTAL
modifications: not checked
- Classification [4]: 3 A450 class
- Classification [5]: 1 A450 class
- Classification [6]: 1 A450 class
- Classification [7]: 3 A450 class
- Classification [8, 22]: 1 A450 class

B3: AdenoE4 typ9 (peptide)
peptide: VGTLLLERVIFPSVKIATLV
modifications: not checked
- Classification [5]: 1 A450 class
- Classification [2]: 3 A450 class
- Classification [9]: 1 A450 class
- Classification [10]: 1 A450 class

B4: MINT-1 (peptide)
peptide: KTMPAAMYRLLTAQEQPVYI
modifications: not checked
- Classification [11]: 1 A450 class
- Classification [10]: 1 A450 class

B5: a-actinin 2 (peptide)
peptide: VPGALDYAAFSSALYGESDL
modifications: not checked
- Classification [12]: 3 A450 class
- Classification [8]: 1 A450 class
- Classification [13]: 1 A450 class

B6: KIA 1481 (peptide)
peptide: PIPAGGCTFSGIFPTLTSPL
modifications: not checked
- Classification [4]: 3 A450 class

B7: NMDA Glutamate Receptor 2C (cysteine-free) (peptide)
peptide: TQGFPGPATWRRISSLESEV
modifications: not checked
- Classification [1]: 2 A450 class
- Classification [3]: 2 A450 class
- Classification [9]: 2 A450 class
- Classification [12]: 4 A450 class
- Classification [13]: 1 A450 class

B8: ephrin B2 (peptide)
peptide: ILNSIQVMRAQMNQIQSVEV
modifications: not checked
- Classification [14]: 1 A450 class
- Classification [15]: 3 A450 class
- Classification [6]: 1 A450 class
- Classification [16]: 3 A450 class
- Classification [17]: 2 A450 class
- Classification [18]: 2 A450 class
- Classification [19]: 1 A450 class
- Classification [20]: 1 A450 class
- Classification [21]: 1 A450 class

B9: CSPG4 (chondroitin sulfae proteoglycan 4, melanoma-associated) (peptide)
peptide: ELLQFCRTPNPALKNGQYWV
modifications: not checked
- Classification [11]: 2 A450 class

B10: alpha-2A Adrenergic receptor (peptide)
peptide: HDFRRAFKKILARGDRKRIV
modifications: not checked
- Classification [15]: 4 A450 class
- Classification [16]: 4 A450 class
- Classification [17]: 2 A450 class
- Classification [18]: 3 A450 class
- Classification [7]: 1 A450 class
- Classification [19]: 1 A450 class
- Classification [20]: 1 A450 class
- Classification [21]: 1 A450 class
